Measured values published in US20250352661A1 (MYTHIC THERAPEUTICS, published 2025).
Positions count from the first letter of the chain named. In names and notes the source's numbering stands.

T1: Human LRRC15 Protein, His Tag (Acro Biosystems) (human, UniProt Q8TF66 22-538, limits assumed)
T1 construct: Bought protein with His tag
T1 sequence (looked up): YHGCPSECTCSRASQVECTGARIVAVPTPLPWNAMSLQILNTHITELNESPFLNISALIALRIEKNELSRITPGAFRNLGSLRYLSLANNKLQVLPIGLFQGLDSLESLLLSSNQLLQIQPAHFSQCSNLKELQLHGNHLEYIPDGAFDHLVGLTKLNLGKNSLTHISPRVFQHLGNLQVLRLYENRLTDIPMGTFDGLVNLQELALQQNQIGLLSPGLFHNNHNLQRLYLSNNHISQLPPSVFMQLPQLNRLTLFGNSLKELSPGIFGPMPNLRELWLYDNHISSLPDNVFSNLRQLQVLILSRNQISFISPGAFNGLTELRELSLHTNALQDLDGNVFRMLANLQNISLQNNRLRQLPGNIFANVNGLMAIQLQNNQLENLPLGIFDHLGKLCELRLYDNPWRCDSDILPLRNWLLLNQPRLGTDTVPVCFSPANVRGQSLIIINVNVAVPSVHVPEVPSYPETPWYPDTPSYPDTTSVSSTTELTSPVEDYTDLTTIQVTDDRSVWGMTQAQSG

T2: Human LRRC15 Protein, His Tag (Acro Biosystems) (human, UniProt Q8TF66 22-538, limits assumed)
T2 construct: not shown: His tag
T2 sequence (looked up): T1 sequence (looked up)

B1: MYT6122 (antibody, V domains shown)
VH: QEQLEESGGDLVKPGASLTLTCTASGLDFRRTNYICWVRQAPGKGLEWIGCIYIADVVHYYASWAKGRFTFSKTSSTTVTLQMTSLTAADTATYFCARGADGGFVYGMDLWGPGTLVTVSS
VL: DVVMTQTPASVSEPVGGTVTIKCHASQSIGNYLSWYQQKPGQRPKRLIYSASTLPSGVPSRFKGAGSGTEFTLTISDLESADAATYYCQNNYWLAGYGHPFGGGTEVVVK
notes: rabbit 15G7 VL Q24H; chimeric, human constant regions
B2: MYT6125 (antibody, V domains shown)
VH: B1 VH
VL: B1 VL with H24Q, Q27H
notes: rabbit 15G7 VL Q27H; chimeric, human constant regions
B3: MYT6130 (antibody, V domains shown)
VH: B1 VH
VL: B1 VL with H24Q, Y32H
notes: rabbit 15G7 VL Y32H; chimeric, human constant regions
B4: MYT6128 (antibody, V domains shown)
VH: B1 VH
VL: B1 VL with H24Q, G30H
notes: rabbit 15G7 VL G30H; chimeric, human constant regions
B5: MYT6127 (antibody, V domains shown)
VH: B1 VH
VL: B1 VL with H24Q, I29H
notes: rabbit 15G7 VL I29H; chimeric, human constant regions
B6: MYT6129 (antibody, V domains shown)
VH: B1 VH
VL: B1 VL with H24Q, N31H
notes: rabbit 15G7 VL N31H; chimeric, human constant regions
B7: MYT6126 (antibody, V domains shown)
VH: B1 VH
VL: B1 VL with H24Q, S28H
notes: rabbit 15G7 VL S28H; chimeric, human constant regions
B8: MYT6124 (antibody, V domains shown)
VH: B1 VH
VL: B1 VL with H24Q, S26H
notes: rabbit 15G7 VL S26H; chimeric, human constant regions
B9: MYT6123 (antibody, V domains shown)
VH: B1 VH
VL: B1 VL with H24Q, A25H
notes: rabbit 15G7 VL A25H; chimeric, human constant regions
B10: MYT6131 (antibody, V domains shown)
VH: B1 VH
VL: B1 VL with H24Q, L33H
notes: rabbit 15G7 VL L33H; chimeric, human constant regions
B11: MYT7935 (antibody, V domains shown)
VH: QQQLVESGGGLVKPGASLTLTCKASGFSFSGSYWICWVRQAPGKGLEWIGCINGGSLDITYYASWAKGRFTISKASSTTVTLQKTSLTAADTATYFCASDTSYTAYGNFYFNLWGPGTLVTVSS
VL: AQVLTQTASPVSAAVGGTVTINCQSSQSVLNNHWLAWYQQKPGQPPKLLIYDASSLASGVPSRFKGSGSGTQFTLTISDLESDDAATYYCQGEFSCGSADCNAFGGGTEVVVKG
notes: also called 24D9 VL N33H
B12: MYT7936 (antibody, V domains shown)
VH: B11 VH
VL: B11 VL with H33N, W34H
notes: tested as culture supernatant; also called 24D9 VL W34H
B13: MYT7942 (antibody, V domains shown)
VH: B11 VH
VL: B11 VL with H33N, S55H
notes: tested as culture supernatant; also called 24D9 VL S55H
B14: MYT7946 (antibody, V domains shown)
VH: B11 VH
VL: B11 VL with H33N, Q91H
notes: tested as culture supernatant; also called 24D9 VL Q91H
B15: MYT7947 (antibody, V domains shown)
VH: B11 VH
VL: B11 VL with H33N, G92H
notes: tested as culture supernatant; also called 24D9 VL G92H
B16: MYT7939 (antibody, V domains shown)
VH: B11 VH
VL: B11 VL with H33N, D52H
notes: tested as culture supernatant; also called 24D9 VL D52H
B17: MYT7943 (antibody, V domains shown)
VH: B11 VH
VL: B11 VL with H33N, L56H
notes: tested as culture supernatant; also called 24D9 VL L56H
B18: MYT7940 (antibody, V domains shown)
VH: B11 VH
VL: B11 VL with H33N, A53H
notes: tested as culture supernatant; also called 24D9 VL A53H
B19: MYT7948 (antibody, V domains shown)
VH: B11 VH
VL: B11 VL with H33N, E93H
notes: tested as culture supernatant; also called 24D9 VL E93H
B20: MYT7958 (antibody, V domains shown)
VH: B11 VH
VL: B11 VL with H33N, A103H
notes: tested as culture supernatant; also called 24D9 VL A103H
B21: MYT7945 (antibody, V domains shown)
VH: B11 VH
VL: B11 VL with H33N, S58H
notes: tested as culture supernatant; also called 24D9 VL S58H
B22: MYT7953 (antibody, V domains shown)
VH: B11 VH
VL: B11 VL with H33N, S98H
notes: tested as culture supernatant; also called 24D9 VL S98H
B23: MYT7938 (antibody, V domains shown)
VH: B11 VH
VL: B11 VL with H33N, A36H
notes: tested as culture supernatant; also called 24D9 VL A36H
B24: MYT7941 (antibody, V domains shown)
VH: B11 VH
VL: B11 VL with H33N, S54H
notes: tested as culture supernatant; also called 24D9 VL S54H
B25: MYT7954 (antibody, V domains shown)
VH: B11 VH
VL: B11 VL with H33N, A99H
notes: also called 24D9 VL A99H
B26: MYT7944 (antibody, V domains shown)
VH: B11 VH
VL: B11 VL with H33N, A57H
notes: tested as culture supernatant; also called 24D9 VL A57H
B27: MYT7955 (antibody, V domains shown)
VH: B11 VH
VL: B11 VL with H33N, D100H
notes: tested as culture supernatant; also called 24D9 VL D100H
B28: MYT7957 (antibody, V domains shown)
VH: B11 VH
VL: B11 VL with H33N, N102H
notes: tested as culture supernatant; also called 24D9 VL N102H
B29: MYT7950 (antibody, V domains shown)
VH: B11 VH
VL: B11 VL with H33N, S95H
notes: tested as culture supernatant; also called 24D9 VL S95H
B30: MYT7952 (antibody, V domains shown)
VH: B11 VH
VL: B11 VL with H33N, G97H
notes: tested as culture supernatant; also called 24D9 VL G97H
B31: MYT7949 (antibody, V domains shown)
VH: B11 VH
VL: B11 VL with H33N, F94H
notes: tested as culture supernatant; also called 24D9 VL F94H
B32: MYT7951 (antibody, V domains shown)
VH: B11 VH
VL: B11 VL with H33N, C96H
notes: tested as culture supernatant; also called 24D9 VL C96H
B33: MYT7937 (antibody, V domains shown)
VH: B11 VH
VL: B11 VL with H33N, L35H
notes: tested as culture supernatant; also called 24D9 VL L35H

These binders were tested against T1, Human LRRC15 Protein, His Tag (Acro …) (assay: BLI; dissociation pH 7.4 black, pH 5.4 grey [D00008 FIG. 1F]).
Description: For each individual plot, antigen binding proteins were captured on anti-human Fc biosensors and associated with LRRC15 at pH 7.4. Dissociation was at pH 7.4 (black) or pH 5.4 (grey). Major X-axis ticks=100 seconds, with left dashed vertical line=0 seconds. Major Y-axis ticks=0.5 nm and octet plots are shown MYT5712 and MYT6080-MYT6121.
Multiple LRRC15-binding monoclonal antibodies have been described in the literature and can be used as a template for engineering pH-dependent binding. We selected discovery RabMAb clone 15G7 (rabbit VH SEQ ID NO: 378, rabbit VL SEQ ID NO: 451; humanized VH SEQ ID NO: 382, humanized VL SEQ ID NO: 455) as a LRRC15-binding monoclonal antibody for pH-engineering via histidine scanning. […] To generate pH-dependent sequence variants, individual amino acid residues within the heavy chain CDRs were systematically substituted with a histidine (or alanine if H was already present in a given position; e.g., MYT6099), one at a time (rabbit, MYT6080-6121). Desirable mutations were transferred to a humanized framework (humanized, MYT 8387-8411). After allowing for four days of protein expression, cell culture supernatants were collected, quantified by SDS-PAGE analysis, and the pH dependence of the variant was evaluated using biolayer interferometry (BLI) on an Octet RED 96e instrument. Briefly, cell culture supernatants were diluted based on qualitative expression level of the variant determined by visual examination of SDS-PAGE gels, 5 μL of cell culture supernatant was diluted into 195 μL of 1×PBST, pH 7.4 for high expressors, 25 μL of cell culture supernatant was diluted into 175 μL of 1×PBST, pH 7.4 for medium expressors and 100 μL of cell culture supernatant was diluted into 100 μL of 1×PBST, pH 7.4 for low expressors for loading onto the sensor tips.

binding result | Binder
binds | B1
binds | B2
binds | B3
binds | B4
binds | B5
binds | B6
binds | B7
binds | B8
binds | B9
binds | B10

These binders were tested against T2, Human LRRC15 Protein, His Tag (Acro …) (assay: BLI; dissociation pH 7.4 black, pH 5.4 grey [D00016 FIG. 3B]).

binding result | Binder
binds | B11
no binding (tested: 50 nM LRRC15) | B12
binds | B13
binds | B14
no binding (tested: 50 nM LRRC15) | B15
no binding (tested: 50 nM LRRC15) | B16
binds | B17
binds | B18
no binding (tested: 50 nM LRRC15) | B19
no binding (tested: 50 nM LRRC15) | B20
binds | B21
binds | B22
no binding (tested: 50 nM LRRC15) | B23
binds | B24
binds | B25
binds | B26
no binding (tested: 50 nM LRRC15) | B27
no binding (tested: 50 nM LRRC15) | B28
no binding (tested: 50 nM LRRC15) | B29
binds | B30
binds | B31
no binding (tested: 50 nM LRRC15) | B32
binds | B33
